Molecular target: T1, C1 esterase (UniProt P09871 16-688, limits assumed)
T1 sequence (looked up): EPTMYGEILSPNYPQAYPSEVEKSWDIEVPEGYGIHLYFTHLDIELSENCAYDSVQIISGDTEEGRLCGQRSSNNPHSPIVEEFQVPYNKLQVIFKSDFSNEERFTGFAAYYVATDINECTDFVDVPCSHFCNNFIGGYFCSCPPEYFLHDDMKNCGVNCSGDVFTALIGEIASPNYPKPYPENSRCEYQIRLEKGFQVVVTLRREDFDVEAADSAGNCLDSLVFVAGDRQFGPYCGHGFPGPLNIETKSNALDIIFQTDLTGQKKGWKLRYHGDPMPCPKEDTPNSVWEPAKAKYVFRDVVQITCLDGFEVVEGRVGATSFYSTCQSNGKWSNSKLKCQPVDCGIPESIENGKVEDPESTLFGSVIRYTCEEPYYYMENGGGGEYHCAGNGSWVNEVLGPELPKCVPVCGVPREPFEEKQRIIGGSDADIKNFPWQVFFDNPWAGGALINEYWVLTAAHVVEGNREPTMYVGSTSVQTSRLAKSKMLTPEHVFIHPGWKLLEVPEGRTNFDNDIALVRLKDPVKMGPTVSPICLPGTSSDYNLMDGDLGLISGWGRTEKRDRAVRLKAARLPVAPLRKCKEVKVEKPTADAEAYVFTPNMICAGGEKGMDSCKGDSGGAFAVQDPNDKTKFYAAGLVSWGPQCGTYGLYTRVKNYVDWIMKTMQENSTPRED
Assay: cell-based or functional assay

B1: recombinant human C1 esterase inhibitor (rhC1-INH) (other)
chain: NPNATSSSSQDPESLQDRGEGKVATTVISKMLFVEPILEVSSLPTTNSTTNSATKITANTTDEPTTQPTTEPTTQPTIQPTQPTTQLPTDSPTQPTTGSFCPGPVTLCSDLESHSTEAVLGDALVDFSLKLYHAFSAMKKVETNMAFSPFSIASLLTQVLLGAGQNTKTNLESILSYPKDFTCVHQALKGFTTKGVTSVSQIFHSPDLAIRDTFVNASRTLYSSSPRVLSNNSDANLELINTWVAKNTNNKISRLLDSLPSDTRLVLLNAIYLSAKWKTTFDPKKTRMEPFHFKNSVIKVPMMNSKKYPVAHFIDQTLKAKVGQLQLSHNLSLVILVPQNLKHRLEDMEQALSPSVFKAIMEKLEMSKFQPTLLTLPRIKVTTSQDMLSIMEKLEFFDFSYDLNLCGLTEDPDLQVSAMQHQTVLELTETGVEAAAASAISVARTLLVFEVQQPFLFVLWDQQHKFPVFMGRVYDPRA
modifications: heavily N- and O-glycosylated, sialylated (CHO-expressed)
For B1, the “potency relative to the initial development reference standard” value was 121%.

From US20180334493A1 (Takeda / Millennium, published 2018)
